This experiment concerns the target untagged human Nit1 isoform 4 (human). Description: SEC; untagged proteins after on-column TEV cleavage, Superdex 200-HR, 50 mM Tris/HCl pH 8.0, 100 mM NaCl, 2 mM MgCl2, 0.3 mL/min; calibrated with marker proteins. On the technique in general: In gel filtration, larger molecules generally elute earlier.

One may read the stoichiometry N as a count of units in the complex or per binding partner. In turn, “untagged human Nit1 isoform 4 (natural protein)” registered a stoichiometry N of 4.
